Patent publication US9193790B2, “Use of antagonists of the interaction between HIV GP120 and A4B7 integrin” (priority 2006, dated 2015)
“Also recorded” adds a separate entry of the source. Ends that are not written are not given here.

Assays:
α4β7 integrin = target: T1, α4β7 integrin (Homo sapiens, UniProt P13612+P26010); conditions: fibronectin, VCAM, MadCAM (Vanderslice et al. 1997); cited from earlier work
T1 sequence (P13612 34-1032): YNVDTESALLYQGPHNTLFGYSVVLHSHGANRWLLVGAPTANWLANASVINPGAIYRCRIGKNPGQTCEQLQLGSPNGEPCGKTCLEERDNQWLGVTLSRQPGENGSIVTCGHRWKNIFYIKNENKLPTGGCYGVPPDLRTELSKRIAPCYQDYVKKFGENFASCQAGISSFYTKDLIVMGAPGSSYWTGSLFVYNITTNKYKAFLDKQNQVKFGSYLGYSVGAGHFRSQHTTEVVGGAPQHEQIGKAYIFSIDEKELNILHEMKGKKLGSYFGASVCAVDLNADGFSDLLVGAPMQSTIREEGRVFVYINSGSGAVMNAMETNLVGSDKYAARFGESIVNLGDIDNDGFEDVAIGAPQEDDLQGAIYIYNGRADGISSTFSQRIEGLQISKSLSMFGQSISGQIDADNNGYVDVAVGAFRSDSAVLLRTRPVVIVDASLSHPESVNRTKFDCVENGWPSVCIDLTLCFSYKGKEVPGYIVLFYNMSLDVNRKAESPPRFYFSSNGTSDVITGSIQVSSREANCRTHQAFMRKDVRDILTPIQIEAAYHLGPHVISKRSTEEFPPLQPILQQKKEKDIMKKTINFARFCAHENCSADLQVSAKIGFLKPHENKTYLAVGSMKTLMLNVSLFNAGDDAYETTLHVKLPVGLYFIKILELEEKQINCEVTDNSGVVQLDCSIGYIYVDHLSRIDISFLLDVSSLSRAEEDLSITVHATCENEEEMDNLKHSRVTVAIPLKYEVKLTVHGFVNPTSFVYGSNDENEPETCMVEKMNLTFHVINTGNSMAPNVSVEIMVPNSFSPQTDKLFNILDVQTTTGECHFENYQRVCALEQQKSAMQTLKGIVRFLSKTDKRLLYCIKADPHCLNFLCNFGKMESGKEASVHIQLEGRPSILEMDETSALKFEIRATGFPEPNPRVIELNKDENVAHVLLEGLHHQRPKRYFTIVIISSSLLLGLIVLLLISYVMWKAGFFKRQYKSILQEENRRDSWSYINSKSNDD
T1 sequence (P26010 20-798): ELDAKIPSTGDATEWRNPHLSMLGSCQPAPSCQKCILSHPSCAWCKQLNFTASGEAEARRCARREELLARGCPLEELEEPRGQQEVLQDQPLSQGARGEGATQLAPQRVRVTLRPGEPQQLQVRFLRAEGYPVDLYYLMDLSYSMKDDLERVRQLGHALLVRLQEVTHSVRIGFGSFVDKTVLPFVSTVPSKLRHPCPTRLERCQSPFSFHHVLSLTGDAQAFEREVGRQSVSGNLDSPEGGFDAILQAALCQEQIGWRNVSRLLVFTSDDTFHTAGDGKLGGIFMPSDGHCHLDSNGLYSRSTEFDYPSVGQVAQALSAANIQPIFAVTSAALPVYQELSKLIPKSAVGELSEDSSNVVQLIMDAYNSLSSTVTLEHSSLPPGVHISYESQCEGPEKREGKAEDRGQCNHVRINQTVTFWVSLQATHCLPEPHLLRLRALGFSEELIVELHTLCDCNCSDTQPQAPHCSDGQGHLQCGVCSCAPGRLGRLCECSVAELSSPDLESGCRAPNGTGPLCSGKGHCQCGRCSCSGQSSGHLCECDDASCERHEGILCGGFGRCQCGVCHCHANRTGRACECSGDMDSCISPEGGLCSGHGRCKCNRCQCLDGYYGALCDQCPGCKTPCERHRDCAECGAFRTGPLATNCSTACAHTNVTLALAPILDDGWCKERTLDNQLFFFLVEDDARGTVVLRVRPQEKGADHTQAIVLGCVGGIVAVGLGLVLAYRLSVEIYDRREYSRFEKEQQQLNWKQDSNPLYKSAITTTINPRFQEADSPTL

[1] = target: T2, α4β7 integrin on CD8+ T-cells (Homo sapiens, UniProt P13612+P26010); experiment: Flow cytometry: gp120 binding to RA-cultured CD8+ T-cells; conditions: peptide at 0.19 μM-12.5 μM (FIG. 8a)
T2 construct: Purified CD4+ T cells and NK cells were obtained by negative selection using magnetic beads; On NKs β7 integrin pairs with α4 integrin (CD49d); endogenous in cells; host or cells: freshly isolated NK cells; OKT3/IL2/retinoic acid-cultured PBMCs (CD8-depleted, i.e. CD4+ T cells) and CD8+ T cells from healthy donors
T2 sequence (P13612 34-1032): T1 sequence (P13612 34-1032)
T2 sequence (P26010 20-798): T1 sequence (P26010 20-798)
Protocol: Cells and Reagents. Freshly isolated PBMCs were obtained from healthy donors and separated by Ficoll-Hypaque. Purified CD4+ T cells and NK cells were obtained by negative selection using magnetic beads (StemCell Technologies, Vancouver, BC). Cultured PBMCs were activated with OKT3, IL2 (201 U/ml) and retinoic acid (RA, 10 nM) unless otherwise specified. RA was obtained from Sigma Chemical (St. Louis, Mo.). Recombinant Ig-fusion proteins (MadCAM, VCAM-1, E-cadherin) were purchased from R&D Systems (Minneapolis, Minn.). Integrin antibodies were obtained from Serotech Laboratories Ltd. (Raleigh, N.C.) and Chemicon (Temecula, Calif.), while FITC, PE, APC surface marker antibodies were acquired from Beckton Dickinson (San Diego, Calif.). Cyclic peptides CWLDVC (SEQ ID NO:1) and the scrambled control peptide CDLWC (SEQ ID NO:31) were obtained from NeoMPS (San Diego, Calif.). Recombinant gp120s were produced and purified as described in supplemental methods, using hollow-fiber bioreactors (Fibercell Systems, Frederick, Md.). Integrin cDNA expression vectors were acquired from ORIGENE™ (ORIGENE is a trademark of OriGene Technologies, Inc., Rockville, Md.). […]
Recombinant gp120 protein labeling. […] Biotin incorporation was determined by reacting gp120s with 4′-hydroxyazobenzene-2-carboxylic acid-avidin conjugates (HABA) per the manufacturer's instructions (Pierce Chemical, Rockford, Ill.). […]

**Q.** For “CWLDVC (also: cyclic, kind of ring not given here)”, which “inhibition of binding of natural ligands to α4 / α4β7 integrin” value (α4β7 integrin) is on record?
**A.** Its value is “inhibit α4 integrin subunit binding to fibronectin, VCAM and MadCAM; also recorded: inhibit binding of all three natural ligands”.

**Q.** And the “inhibition of gp120-binding to RA cultured CD8+ T-cells by cyclic peptide” value [1]?
**A.** Its value is “inhibited by CWLDVC in a dose dependent manner”.
